Literature values, collected in PMC12667676.

Target: MCHR1 (Homo sapiens) (UniProt Q99705)
UniProt Q99705, sequence (Q99705 whole entry): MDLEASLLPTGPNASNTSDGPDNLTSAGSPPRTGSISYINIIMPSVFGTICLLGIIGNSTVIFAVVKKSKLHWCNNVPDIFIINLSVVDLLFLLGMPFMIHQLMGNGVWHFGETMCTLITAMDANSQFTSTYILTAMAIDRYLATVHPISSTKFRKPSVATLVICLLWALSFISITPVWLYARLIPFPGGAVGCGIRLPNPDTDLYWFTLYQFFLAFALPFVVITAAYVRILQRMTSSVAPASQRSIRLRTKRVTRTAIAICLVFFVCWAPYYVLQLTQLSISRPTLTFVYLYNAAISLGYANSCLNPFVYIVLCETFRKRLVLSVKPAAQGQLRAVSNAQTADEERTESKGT

Kd: 3.1 nM
Substance: melanin-concentrating hormone (from UniProt P20382)
